Data published in US20140325692, “BLUE-LIGHT INDUCIBLE SYSTEM FOR GENE EXPRESSION” (BOARD OF REGENTS, THE UNIVERSITY OF TEXAS SYSTEM, published 2014).

T1: EL222 (14-222) wild type (Erythrobacter litoralis, UniProt Q2NB98 SEQ:1-209)
T1 chain: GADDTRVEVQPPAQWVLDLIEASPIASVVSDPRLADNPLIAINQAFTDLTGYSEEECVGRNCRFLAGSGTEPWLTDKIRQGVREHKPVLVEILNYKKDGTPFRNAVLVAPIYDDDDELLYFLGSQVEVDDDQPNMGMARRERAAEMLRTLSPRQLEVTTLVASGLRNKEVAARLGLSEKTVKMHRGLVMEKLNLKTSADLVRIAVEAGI


Columns and labels:
Settings in all cases: tags: His6-Gβ1 (pHis6-Gβ1-Parallel1); label: 5'-32P
[1] = molecular target: T1, EL222 (14-222) wild type; assay: EMSA; white LED light, 4 C, 10 mM Tris pH 8.0, 80 mM NaCl, 3 mM MgCl2
Description: (§1) DNA pools derived from each SELEX cycle were PCR amplified as described previously in the SELEX procedure. Complementary oligonucleotides for each individual SELEX-derived clone sequence were chemically synthesized (Sigma), heated to 95-100° C. for 5 min and left to cool to room temperature to anneal the oligonucleotides. DNAs were 5′-end labeled in a 50 μl reaction containing (final concentrations) 68 nM DNA substrate, 70 mM Tris-Cl pH 7.6, 10 mM MgCl₂, 5 mM DTT, 0.6 μCi ATP [γ-³²P] (Perkin Elmer, cat. no. BLU502Z500UC), and 0.2 U PNK (New England Biolabs Inc.). The reaction was incubated for 30 min at 37° C., followed by a 20 min incubation at 65° C. to heat inactivate the enzyme. The ³²P-labeled DNA was purified from the unincorporated ATP [γ-³²P] using Illustra ProbeQuant G-50 micro-columns (GE Healthcare). Approximately 13.6 nM radiolabeled DNA was incubated with varying concentrations of WT-EL222 in the same binding buffer used for SELEX procedure for 25 min at 4° C. with continuous illumination with a white LED light. Reactions were analyzed on a 5% native gel (Acrylamide/Bis 29:1) and run in TBE buffer at 150 V for 1.5 hr at 4° C. The gel was exposed to a PhosphorImaging plate and visualized using FujiFilm FLA-5100 imaging system.

[2] = molecular target: T1, EL222 (14-222) wild type; assay: EMSA; light, 4 C, 3 mM MgCl2; 33 bp randomized region printed
Description: as §1

[3] = molecular target: T1, EL222 (14-222) wild type; assay: EMSA; light, 4 C, 3 mM MgCl2
Description: as §1

Row | Binder | binding result [2] | other results
1 | Clone-1 (dsDNA) DNA 1: TCTACGTTATAGGTAGCCTTTAGTCCATGCTGATTCGTTTTCAAC DNA 2: GTTGAAAACGAATCAGCATGGACTAAAGGCTACCTATAACGTAGA | – | binding result [1]: binds
2 | Clone-3 (dsDNA) DNA 1: TAGACTTAAGTCTAGTACACAAGTTTTCCAGGG DNA 2: CCCTGGAAAACTTGTGTACTAGACTTAAGTCTA | binds | –
3 | Clone-2 (dsDNA) DNA 1: AGCTAGGCTTTTGGTCTGTATAGCTGTCTTATA DNA 2: TATAAGACAGCTATACAGACCAAAAGCCTAGCT | binds | –
4 | Clone-22 (dsDNA) DNA 1: TATAGGGCTTTAGTCTGTATGTGGGATGTGTGT DNA 2: ACACACATCCCACATACAGACTAAAGCCCTATA | binds | –
5 | Clone-53 (dsDNA) DNA 1: CATGGCCTAAGGACTGTAAGTACTATTAAATAC DNA 2: GTATTTAATAGTACTTACAGTCCTTAGGCCATG | binds | –
6 | Clone-77 (dsDNA) DNA 1: CAGATACATGCTTTAGTACGTATATTCGATGTC DNA 2: GACATCGAATATACGTACTAAAGCATGTATCTG | binds | –
7 | Clone-78 (dsDNA) DNA 1: GCCCTAAGACTGTATCTTATTCGTGAGTTTTAA DNA 2: TTAAAACTCACGAATAAGATACAGTCTTAGGGC | binds | –
8 | C1-2 (dsDNA) DNA 1: TAGGTAGCCTTTAGTCCATG DNA 2: CATGGACTAAAGGCTACCTA | – | binding result [3]: binds
